The subject of this series is Escherichia coli TOP10. Nature of the series: shrunken log2 fold change of peptide-encoding DNA abundance (4.5 h post-induction vs induction); higher = less antimicrobial activity (less host growth inhibition). The note with it: time post-induction: 4.5 h; library: site-saturation at positions 5, 18, 19, 20.
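Note: peptides expressed intracellularly from a pBAD plasmid library in pooled LB shake-flask culture, induced with 0.3% L-arabinose, DNA abundance read by NGS, three biological replicates, DESeq2 with apeglm shrinkage.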

For RRIRMRPPRLPRPRPRPQHWPRP, the “shrunken log2 fold change” value was 0.155. Take RRIRIRPPRLPRPRPRPYPRPRP: the “shrunken log2 fold change” value is -0.311.

For the sequence RRIRKRPPRLPRPRPRPYKWPRP, the “shrunken log2 fold change” value is 0.000411. As for RRIRDRPPRLPRPRPRPQALPRP, the “shrunken log2 fold change” value was determined as 0.214. In the case of RRIRERPPRLPRPRPRPRMGPRP, the “shrunken log2 fold change” value was -0.173. In the case of RRIRLRPPRLPRPRPRPSPRPRP it was 0.307; in that of RRIRGRPPRLPRPRPRPGVKPRP, 0.588; in that of RRIRDRPPRLPRPRPRPYHCPRP, -0.00783. As for RRIRTRPPRLPRPRPRPSRCPRP, the “shrunken log2 fold change” value came to 0.061.

As for RRIRLRPPRLPRPRPRPFAKPRP, the “shrunken log2 fold change” value is -0.118.

In the case of RRIRTRPPRLPRPRPRPCTSPRP, the “shrunken log2 fold change” value is -0.137. In the case of RRIRCRPPRLPRPRPRPDCTPRP it was -0.232; in that of RRIRHRPPRLPRPRPRPWIDPRP, -0.00448. As for RRIRTRPPRLPRPRPRPCNDPRP, the “shrunken log2 fold change” value is -0.145. Regarding RRIRRRPPRLPRPRPRPPLPPRP, the “shrunken log2 fold change” value is 1.06. For the sequence RRIRTRPPRLPRPRPRPEACPRP, the “shrunken log2 fold change” value was -0.1.

Take RRIRERPPRLPRPRPRPNHEPRP: the “shrunken log2 fold change” value came to 0.0522. In the case of RRIRDRPPRLPRPRPRPNLGPRP it was -0.00884; in that of RRIRSRPPRLPRPRPRPLDDPRP, -0.0921. In the case of RRIRKRPPRLPRPRPRPCMAPRP it was 0.0448; in that of RRIRSRPPRLPRPRPRPEWGPRP, 0.0115.

Turning to RRIRKRPPRLPRPRPRPWIAPRP, the “shrunken log2 fold change” value is 0.285.

On to RRIRFRPPRLPRPRPRPDPLPRP, for which the “shrunken log2 fold change” value was determined as 0.165. In the case of RRIRMRPPRLPRPRPRPKIRPRP it was -0.0101; in that of RRIRCRPPRLPRPRPRPSPHPRP, -0.144; in that of RRIRCRPPRLPRPRPRPGSEPRP, 0.286. To RRIRQRPPRLPRPRPRPDWYPRP belongs -0.32.

Regarding RRIRERPPRLPRPRPRPTWIPRP, the “shrunken log2 fold change” value is -0.268. RRIRERPPRLPRPRPRPPSWPRP: the “shrunken log2 fold change” value is -0.2. To RRIRIRPPRLPRPRPRPMNSPRP belongs -0.191; to RRIRARPPRLPRPRPRPWNRPRP, -0.0462. In the case of RRIRSRPPRLPRPRPRPRWAPRP, the “shrunken log2 fold change” value is 0.158.

For RRIRIRPPRLPRPRPRPDKPPRP, the “shrunken log2 fold change” value was -0.0335. Take RRIRQRPPRLPRPRPRPQFIPRP: the “shrunken log2 fold change” value was -0.0627.

RRIRPRPPRLPRPRPRPCWDPRP: the “shrunken log2 fold change” value is -0.0457. To RRIRMRPPRLPRPRPRPCYYPRP belongs -0.199; to RRIRCRPPRLPRPRPRPMNLPRP, -0.538; to RRIRKRPPRLPRPRPRPLWPPRP, 0.46. For RRIRNRPPRLPRPRPRPPPRPRP, the “shrunken log2 fold change” value is 1.47. Turning to RRIRKRPPRLPRPRPRPILRPRP, the “shrunken log2 fold change” value was -0.0475.

Turning to RRIRCRPPRLPRPRPRPESKPRP, the “shrunken log2 fold change” value was determined as 0.198. To RRIRFRPPRLPRPRPRPPNFPRP belongs -0.22; to RRIRTRPPRLPRPRPRPPQEPRP, 0.0383. To RRIRCRPPRLPRPRPRPVLFPRP belongs -0.101.

Turning to RRIRDRPPRLPRPRPRPGSEPRP, the “shrunken log2 fold change” value is 0.0708. With RRIRSRPPRLPRPRPRPKCYPRP, the “shrunken log2 fold change” value was -0.16. Take RRIRIRPPRLPRPRPRPKFAPRP: the “shrunken log2 fold change” value was -0.0494. As for RRIRSRPPRLPRPRPRPKRFPRP, the “shrunken log2 fold change” value is 0.0952.

Regarding RRIRGRPPRLPRPRPRPPMMPRP, the “shrunken log2 fold change” value came to 0.626.

As for RRIRMRPPRLPRPRPRPMLGPRP, the “shrunken log2 fold change” value was 0.141.

RRIRIRPPRLPRPRPRPMLTPRP: the “shrunken log2 fold change” value is -0.00363.

Consider RRIRGRPPRLPRPRPRPLRHPRP, for which the “shrunken log2 fold change” value was 1.34. RRIRDRPPRLPRPRPRPYLNPRP: the “shrunken log2 fold change” value was -0.272. To RRIRDRPPRLPRPRPRPAARPRP belongs 0.518. As to RRIRIRPPRLPRPRPRPLRGPRP, the “shrunken log2 fold change” value is 0.694. Regarding RRIRYRPPRLPRPRPRPPEAPRP, the “shrunken log2 fold change” value came to 0.0456. RRIRRRPPRLPRPRPRPSDCPRP: the “shrunken log2 fold change” value is -0.0825.

As to RRIRMRPPRLPRPRPRPLQAPRP, the “shrunken log2 fold change” value amounted to 2.15. To RRIRLRPPRLPRPRPRPYCFPRP belongs -0.909; to RRIRCRPPRLPRPRPRPSEFPRP, -0.287; to RRIRNRPPRLPRPRPRPFYGPRP, -0.107. Turning to RRIRLRPPRLPRPRPRPNVMPRP, the “shrunken log2 fold change” value is -0.0669. RRIRRRPPRLPRPRPRPIPDPRP: the “shrunken log2 fold change” value was found to be 0.277. In the case of RRIRARPPRLPRPRPRPQGWPRP it was 0.472; in that of RRIRERPPRLPRPRPRPFRVPRP, -0.0333. For RRIRCRPPRLPRPRPRPLWDPRP, the “shrunken log2 fold change” value is -0.386. To RRIRARPPRLPRPRPRPWHRPRP belongs 0.00868; to RRIRIRPPRLPRPRPRPMHIPRP, -0.417; to RRIRGRPPRLPRPRPRPRPDPRP, 0.94. Take RRIRKRPPRLPRPRPRPGGWPRP: the “shrunken log2 fold change” value worked out at 0.62. Turning to RRIRCRPPRLPRPRPRPNSRPRP, the “shrunken log2 fold change” value is -0.175. Take RRIRWRPPRLPRPRPRPTMTPRP: the “shrunken log2 fold change” value stood at 0.328. On to RRIRRRPPRLPRPRPRPVATPRP, for which the “shrunken log2 fold change” value came out at 1.15. Take RRIRRRPPRLPRPRPRPMLPPRP: the “shrunken log2 fold change” value was -0.000603. Regarding RRIRCRPPRLPRPRPRPDMTPRP, the “shrunken log2 fold change” value is -0.00325. In the case of RRIRIRPPRLPRPRPRPGTDPRP it was -0.114; in that of RRIRNRPPRLPRPRPRPDSQPRP, -0.0699; in that of RRIRRRPPRLPRPRPRPGVKPRP, 0.187. As to RRIRCRPPRLPRPRPRPAWEPRP, the “shrunken log2 fold change” value stood at 0.0219. In the case of RRIRDRPPRLPRPRPRPPQPPRP it was 0.387.

Turning to RRIRHRPPRLPRPRPRPSWAPRP, the “shrunken log2 fold change” value is 0.19. In the case of RRIRGRPPRLPRPRPRPQEHPRP it was 0.146.

In the case of RRIRLRPPRLPRPRPRPDPSPRP, the “shrunken log2 fold change” value is 0.0199. In the case of RRIRLRPPRLPRPRPRPRHTPRP it was -0.236. To RRIRDRPPRLPRPRPRPQRHPRP belongs 0.0682. In the case of RRIRTRPPRLPRPRPRPYTQPRP it was -0.434. RRIRLRPPRLPRPRPRPRNAPRP: the “shrunken log2 fold change” value was -0.0271. Turning to RRIRARPPRLPRPRPRPMYKPRP, the “shrunken log2 fold change” value was -0.189. To RRIRFRPPRLPRPRPRPFSRPRP belongs 0.184. To RRIRLRPPRLPRPRPRPEYVPRP belongs 0.102; to RRIRKRPPRLPRPRPRPNSNPRP, -0.115. In the case of RRIRDRPPRLPRPRPRPSTWPRP it was -0.0672; in that of RRIRHRPPRLPRPRPRPMFQPRP, -0.0107. For the sequence RRIRDRPPRLPRPRPRPICMPRP, the “shrunken log2 fold change” value is -0.00256. On to RRIRMRPPRLPRPRPRPRWYPRP, for which the “shrunken log2 fold change” value came to 0.0191. For the sequence RRIRTRPPRLPRPRPRPADKPRP, the “shrunken log2 fold change” value was -0.257.

Take RRIRIRPPRLPRPRPRPQPIPRP: the “shrunken log2 fold change” value was -0.00642. Turning to RRIRKRPPRLPRPRPRPTDKPRP, the “shrunken log2 fold change” value came out at 0.208.

Take RRIRERPPRLPRPRPRPKRCPRP: the “shrunken log2 fold change” value is -0.0369. Regarding RRIRGRPPRLPRPRPRPDACPRP, the “shrunken log2 fold change” value stood at 1.23. To RRIRGRPPRLPRPRPRPYGMPRP belongs 0.036. To RRIRPRPPRLPRPRPRPVDQPRP belongs -0.256; to RRIRSRPPRLPRPRPRPWFMPRP, -0.86. In the case of RRIRERPPRLPRPRPRPGVRPRP it was 0.125; in that of RRIRARPPRLPRPRPRPVMTPRP, -0.00766. Turning to RRIRGRPPRLPRPRPRPEHCPRP, the “shrunken log2 fold change” value was found to be 0.549. As for RRIRQRPPRLPRPRPRPKGIPRP, the “shrunken log2 fold change” value came to 0.0655.

Turning to RRIRERPPRLPRPRPRPIFNPRP, the “shrunken log2 fold change” value was -0.663. Turning to RRIRTRPPRLPRPRPRPRLSPRP, the “shrunken log2 fold change” value was -0.0634. As to RRIRFRPPRLPRPRPRPYNCPRP, the “shrunken log2 fold change” value is -0.768. To RRIRRRPPRLPRPRPRPLAYPRP belongs -0.00715; to RRIRNRPPRLPRPRPRPRVNPRP, -0.0734.

In the case of RRIRLRPPRLPRPRPRPHADPRP, the “shrunken log2 fold change” value was -0.299. In the case of RRIRRRPPRLPRPRPRPQRGPRP it was 0.399. As to RRIRYRPPRLPRPRPRPYFRPRP, the “shrunken log2 fold change” value was -0.836. In the case of RRIRWRPPRLPRPRPRPTFKPRP it was 0.132.

Turning to RRIRVRPPRLPRPRPRPCVMPRP, the “shrunken log2 fold change” value is -0.0841. To RRIRRRPPRLPRPRPRPHCTPRP belongs -0.18.

Take RRIRFRPPRLPRPRPRPNPIPRP: the “shrunken log2 fold change” value is -0.423. To RRIRRRPPRLPRPRPRPEQFPRP belongs 0.212; to RRIRLRPPRLPRPRPRPTKTPRP, -0.0526. Consider RRIRPRPPRLPRPRPRPRDNPRP, for which the “shrunken log2 fold change” value was -0.104. As for RRIRFRPPRLPRPRPRPFEPPRP, the “shrunken log2 fold change” value was -0.0506. In the case of RRIRGRPPRLPRPRPRPHNQPRP it was 0.05. In the case of RRIRYRPPRLPRPRPRPWVMPRP it was -0.195.

The values above are taken from the supplement of paper PMC9112550, “Optimization of the antimicrobial peptide Bac7 by deep mutational scanning” (BMC Biology, 2022).
